Results as given in patent publication US20060193771A1.

Assays:
[1] = molecular target: T1, recombinant soluble CD30 (sCD30) produced in E. coli (human); assay: indirect ELISA, sCD30 coated
T1 sequence: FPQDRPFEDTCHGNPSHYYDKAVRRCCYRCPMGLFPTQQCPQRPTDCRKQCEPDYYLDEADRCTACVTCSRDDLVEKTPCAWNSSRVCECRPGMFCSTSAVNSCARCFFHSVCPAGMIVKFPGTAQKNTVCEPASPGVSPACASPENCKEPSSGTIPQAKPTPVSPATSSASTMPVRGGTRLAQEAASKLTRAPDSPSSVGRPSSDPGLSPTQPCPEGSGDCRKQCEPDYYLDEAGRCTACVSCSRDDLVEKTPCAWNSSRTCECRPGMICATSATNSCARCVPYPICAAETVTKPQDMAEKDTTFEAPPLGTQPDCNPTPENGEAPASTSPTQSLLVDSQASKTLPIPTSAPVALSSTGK

[2] = molecular target: T2, CD30-Fc (human); assay: indirect ELISA, CD30-Fc coated
T2 sequence: T1 sequence

[3] = molecular target: human CD30, native, expressed on cells (human); assay: FACS, L428 cells, MAb 5 µg/ml, control HeFi-I
[4] = molecular target: human CD30, native, expressed on cells (human); assay: FACS, L540 cells, MAb 5 µg/ml, control HeFi-I
[5] = molecular target: human CD30, native, expressed on cells (human); assay: competitive FACS on L540 cells, unlabeled MAb 2.5 µg/ml; competitor: biotin-T6
[6] = molecular target: human CD30, native, expressed on cells (human); assay: competitive FACS on L540 cells, unlabeled MAb 2.5 µg/ml; competitor: biotin-T14
[7] = molecular target: human CD30, native, expressed on cells (human); assay: competitive FACS on L540 cells, unlabeled MAb 2.5 µg/ml; competitor: biotin-T24
[8] = molecular target: human CD30, native, expressed on cells (human); assay: competitive FACS on L540 cells, unlabeled MAb 2.5 µg/ml; competitor: biotin-T25
[9] = molecular target: human CD30, native, expressed on cells (human); assay: competitive FACS on L540 cells, unlabeled MAb 2.5 µg/ml; competitor: biotin-HRS-4
[10] = molecular target: human CD30, native, expressed on cells (human); assay: competitive FACS on L540 cells, unlabeled MAb 2.5 µg/ml; competitor: biotin-HeFi-I
[11] = molecular target: transferrin receptor on L540 cells (UniProt P02786); assay: cell-based or functional assay
Sequence of transferrin receptor on L540 cells (P02786 whole entry): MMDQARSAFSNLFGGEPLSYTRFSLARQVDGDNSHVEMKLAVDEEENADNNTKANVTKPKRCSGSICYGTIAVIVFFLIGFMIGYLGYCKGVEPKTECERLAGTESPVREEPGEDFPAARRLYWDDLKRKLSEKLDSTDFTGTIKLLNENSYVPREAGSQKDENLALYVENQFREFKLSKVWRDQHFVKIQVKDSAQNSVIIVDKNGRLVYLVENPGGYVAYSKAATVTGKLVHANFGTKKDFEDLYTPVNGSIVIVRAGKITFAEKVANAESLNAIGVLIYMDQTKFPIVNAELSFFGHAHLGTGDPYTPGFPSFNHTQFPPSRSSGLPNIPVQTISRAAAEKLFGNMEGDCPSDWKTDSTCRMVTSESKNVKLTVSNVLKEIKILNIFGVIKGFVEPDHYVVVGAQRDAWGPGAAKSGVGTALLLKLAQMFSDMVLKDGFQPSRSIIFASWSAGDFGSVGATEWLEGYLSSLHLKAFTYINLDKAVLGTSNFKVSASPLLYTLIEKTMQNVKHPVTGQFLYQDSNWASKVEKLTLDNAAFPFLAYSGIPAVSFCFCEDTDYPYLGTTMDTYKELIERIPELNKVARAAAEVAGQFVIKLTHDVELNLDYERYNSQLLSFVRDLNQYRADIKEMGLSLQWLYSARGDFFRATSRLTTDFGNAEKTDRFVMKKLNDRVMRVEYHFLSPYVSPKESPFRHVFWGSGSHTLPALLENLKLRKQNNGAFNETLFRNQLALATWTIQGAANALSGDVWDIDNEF

[12] = molecular target: human CD30, native, expressed on cells (human); assay: FACS, L428 cells, control HeFi-I
[13] = molecular target: human CD30, native, expressed on cells (human); assay: FACS, L540 cells, control HeFi-I

Sequence of HB21(scFv)-PE40 (P11439 278-638): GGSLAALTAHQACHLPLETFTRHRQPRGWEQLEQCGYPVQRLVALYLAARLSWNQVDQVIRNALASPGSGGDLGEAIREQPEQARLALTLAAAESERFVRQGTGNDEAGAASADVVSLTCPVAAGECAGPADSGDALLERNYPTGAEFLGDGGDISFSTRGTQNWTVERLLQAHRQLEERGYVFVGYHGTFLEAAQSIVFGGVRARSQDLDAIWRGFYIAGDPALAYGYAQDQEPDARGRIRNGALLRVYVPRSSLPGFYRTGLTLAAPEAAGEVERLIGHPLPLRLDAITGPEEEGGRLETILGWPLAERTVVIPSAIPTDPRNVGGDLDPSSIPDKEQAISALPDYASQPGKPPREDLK

Substance	titer in ELISA [1] [mL/µg]	titer in ELISA [2] [mL/µg]	relative reactivity in FACS (% of control) [3]	relative reactivity in FACS (% of control) [4]	inhibition of the binding of biotin-MAb (%) [5] [%]	inhibition of the binding of biotin-MAb (%) [6] [%]	inhibition of the binding of biotin-MAb (%) [7] [%]	inhibition of the binding of biotin-MAb (%) [8] [%]	inhibition of the binding of biotin-MAb (%) [9] [%]	inhibition of the binding of biotin-MAb (%) [10] [%]	IC50 (ng/ml) in cytotoxicity test, A431/CD25 cells [11] [ng/mL]	IC50 (ng/ml) in cytotoxicity test, A431/CD30 cells [11] [ng/mL]	IC50 (ng/ml) in cytotoxicity test, HUT102W cells [11] [ng/mL]	IC50 (ng/ml) in cytotoxicity test, SUDHL-1 cells [11] [ng/mL]	IC50 (ng/ml) in cytotoxicity test, SUP-M2 cells [11] [ng/mL]	relative reactivity in FACS (% of control) [12]	relative reactivity in FACS (% of control) [13]
Ber-H2 MAb (antibody)	50	75	160 % of control	111 % of control	75.6	108	18.2	23.3	80.3	0	–	–	–	–	–	–	–
HB21(scFv)-PE40 (from UniProt P11439 278-638)	–	–	–	–	–	–	–	–	–	–	0.03	0.02	1.5	0.05	0.02	–	–
HRS-4 MAb (antibody)	–	50	–	–	87.4	108	3.9	25	82.6	0	–	–	–	–	–	–	–
control mouse IgG1 (antibody)	–	–	–	–	–	–	–	–	–	–	–	–	–	–	–	16 % of control	0.2 % of control
